Data on one molecule can be found in patent US20240036044A1 (GEMINA LABORATORIES, published 2024).

The target of experiment [1] is T1, recombinant SARS-CoV-2 Spike protein antigen (Z03501, Genscript) (SARS-CoV-2, UniProt P0DTC2 16-685).
T1 construct: also called SARS-CoV-2 Spike antigen; S antigen
Kind of experiment: dot blot dipstick assay, gold nanoparticle conjugate without antibody.

Experiment [2] has as its target Monoclonal antibody against the SARS-CoV-2 Spike protein (A02038, Genscript).
In experiment [3] the target is Monoclonal antibody against the SARS-CoV-2 Nucleocapsid protein (A02039, Genscript).
Experiment [4] addresses T2, recombinant SARS-CoV-2 Nucleocapsid protein antigen (Z03488, Genscript) (SARS-CoV-2, UniProt P0DTC9 1-419).
T2 construct: also called SARS-CoV-2 Nucleocapsid antigen; NC
Description: dot blot dipstick, gold nanoparticles with EMT-003 alone.

B1: gold-binding fusion protein EMT003 (protein G' - linker - gold-binding peptide EMT015) (other)
chain: MTYKLILNGKTLKGETTTEAVDAATAEKVFKQYANDNGVDGEWTYDDATKTFTVTEKPEVIDASELTPAVTTYKLVINGKTLKGETTTEAVDAATAEKVFKQYANDNGVDGEWTYDDATKTFTVTEKPEVIDASELTPAVTTYKLVINGKTLKGETTTKAVDAETAEKAFKQYANDNGVDGVWTYDDATKTFTVTEGGGGSGGGGSGGGGSASGGGMHGKTQATSGTIQSMHGKTQATSGTIQSMHGKTQATSGTIQSMHGKTQATSGTIQSMHGKTQATSGTIQSMHGKTQATSGTIQSMHGKTQATSGTIQS
notes: also called EMT-03; Gold fusion protein
For the molecule B1, the binding result in experiment [1] is “no binding (tested: 0.5 µg antigen spotted)”. Further, in experiment [2], the Kd (in general, the equilibrium constant for the complex coming apart) was determined as 0.192 nM; the koff (commonly the rate constant with which the complex falls apart) turned out to be 0.000103 s⁻¹; the kon (as a rule, the rate constant with which the complex forms) was 537000 M⁻¹ s⁻¹. In experiment [3], this molecule yielded a Kd of 0.258 nM, a koff of 0.000149 s⁻¹ and a kon of 577000 M⁻¹ s⁻¹. In addition, in experiment [4], the binding result was “no binding”.
